Measured values reported in patent US20190262398, “TIM3 HOMING ENDONUCLEASE VARIANTS, COMPOSITIONS, AND METHODS OF USE” (bluebird bio, Inc., published 2019).

Experiments:
[1] = target: T1, TIM3_rd3.22 HE (I-OnuI variant), mammalian expression (Artificial (I-OnuI from Ophiostoma …)); experiment: cell_activity; HEK293T chromosomal mCherry reporter; approx 4-fold higher rate of mCherry cells after refinement
T1 chain: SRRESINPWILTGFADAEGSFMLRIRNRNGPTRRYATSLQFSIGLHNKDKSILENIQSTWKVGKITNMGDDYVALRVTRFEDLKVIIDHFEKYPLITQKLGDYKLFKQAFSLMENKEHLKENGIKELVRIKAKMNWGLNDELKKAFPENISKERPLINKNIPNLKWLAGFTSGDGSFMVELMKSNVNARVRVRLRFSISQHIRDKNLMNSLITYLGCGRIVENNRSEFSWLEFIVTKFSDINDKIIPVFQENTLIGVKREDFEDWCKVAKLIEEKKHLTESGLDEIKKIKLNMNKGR
Procedure: The activity of reprogrammed I-OnuI HEs that target exon 2 of the TIM3 gene was measured using a chromosomally integrated fluorescent reporter system (Certo et. al., 2011). Fully reprogrammed I-OnuI HEs that bind and cleave the TIM3 target sequence were cloned into mammalian expression plasmids and then individually transfected into a HEK 293T […] cell line that was reprogrammed to contain the TIM3 target sequence upstream of an out-of-frame gene encoding the fluorescent mCherry protein. Cleavage of the embedded target site by the HE and the subsequent accumulation of small insertions or deletions, caused by DNA repair via the non-homologous end joining (NHEJ) pathway, results in approximately one out of three repaired loci placing the fluorescent reporter gene back “in-frame”. mCherry fluorescence is therefore a readout of endonuclease activity at the chromosomally embedded target sequence. […] FIG. 3 (top panel).
A secondary I-OnuI variant library was generated by performing random mutagenesis on one of the reprogrammed I-OnuI HEs that targets the TIM3 target site identified in the initial reporter screen (TIM3_rd1.12, SEQ ID NO: 6). In addition, display-based flow sorting was performed under more stringent cleavage conditions in an effort to isolate variants with improved catalytic efficiency. FIG. 3 (middle panel). […]

[2] = target: T2, TIM3_rd3.22 HE (I-OnuI variant) (Artificial (I-OnuI from Ophiostoma …)); experiment: flow; yeast surface display substrate titration; stated as subnanomolar affinity; settings: tags: yeast surface display
T2 chain: T1 chain

B1: TIM3 exon 2 HE target site (dsDNA)
DNA 1: TGTCCAATAATTCACATCCCTT
DNA 2: AAGGGATGTGAATTATTGGACA
activity [1]: ~4 fold | Kd [2]: < 1 nM
